Laboratory results as given in the Human Domainome abundance scans (Beltran et al. 2025).

B1: RNA-binding E3 ubiquitin-protein ligase MEX3C, residues 325 to 391; numbered along this chain, Q5U5Q3 (parent)
chain: GQTTVQVRVPYRVVGLVVGPKGATIKRIQQQTHTYIVTPSRDKEPVFEVTGMPENVDRAREEIEMHI

Variants of: B1
Assay: abundance fitness (aPCA) (normalised: wild type 0, dead -1); higher = more abundant; growth selection in yeast, the domain comes from the species named
Settings: Homo sapiens

Abundance fitness: each site, then its substitutions
V37: A -0.23, R 0.138, M -0.095, Q -0.094, S -0.027, D -0.377, H -0.582, F -1, T 0.136, E -0.422, I -0.089, W -0.811, N -0.426, C -0.205, K 0.216, Y -0.629, L -0.315, P -0.724
E48: W -0.124, I -0.007, M -0.04, C -0.357, S -0.245, G -0.748, P -0.771, Q -0.204, L -0.029, H -0.155, V -0.292, A -0.356, N -0.733, F -0.068, D -0.534
V49: A -0.682, D -0.71, C -0.668, G -0.469, F -0.842
F47: G -0.661, D -1.01, N -0.442, M -0.808, Q -0.648, Y -0.677, C -0.411, V -0.792, I -0.853, W -0.412, S -0.835, T -0.511, E -0.658, R -0.706, P -0.974, A -0.889
D42: G 0.099, P -1.01, Q -0.122, A -0.292, F -0.198, R -0.408, C -0.425, M -0.128, S -0.332, T -0.245, I -0.342, V -0.465, L -0.263, K -0.139, W -0.335, Y -0.181, N -0.071, H -0.191
S40: C -0.332, H -0.352, A 0.021, M -0.016, V -0.229, W -0.215, E -0.029, F -0.349, G 0.03, N 0.032, Y -0.137, K -0.072, Q -0.033, D 0.138, I -0.34, P 0.08, T -0.081, L -0.133
P39: N -0.234, V -0.476, W -0.58, I -0.57, K -0.149, T -0.409, F -0.286, E -0.424, Q -0.477, R -0.276, H -0.402, G -0.467, C -0.221, Y -0.328, A -0.497, D -0.383, M -0.502
Q31: I -0.18, F -0.452, K 0.035, L -0.128, E 0.252, C -0.69, A -0.272, S -0.319, P -0.65, V -0.109, N -0.048, G -0.57, T -0.261, M 0.048, R 0.036, D -0.001, W -0.966
Q29: K -0.81, G -0.308, M 0.205, V -0.746, I -0.736, T -0.619, S -0.179, R -0.549, W -0.629, P -0.765
V46: H -0.579, W -0.662, Y -0.146, M -0.361, C -0.645, I -0.093, L -0.332, P -0.66, E -0.767, R -0.607, N -0.62, F -0.503, A -0.676, T -0.526, K -0.321, G -0.7, S -0.774, Q -0.621
Y35: D -0.283, S 0.15, T 0.307, L -0.046, I -0.069, N 0.1, A -0.044, W -0.135, V 0.129, E -0.041, F -0.02, K 0.284, P -0.773, M -0.044, Q 0.206, G -0.511, R 0.2, C -0.132, H 0.164
K43: S 0.12, R -0.133, I -0.583, L -0.579, E -0.191, Q -0.059, C -0.1, Y -0.46, D 0.131, T -0.05, W -0.435, P -0.565, H 0.012, F -0.431, A 0.058, V -0.423, G 0.108, M 0.125, N -0.093
E44: T -0.798, G -0.492, M -0.687, P -0.374, A -0.177, L -0.582, S -0.459, C -0.834, K -0.697, F -0.906, V -0.472, W -0.695, N -0.222, R -0.719, Q -0.305
T32: M -0.653, D -0.575, P -0.654, L -0.734, R -0.938, I -0.944, C -0.578, E -0.707, Q -0.669, H -0.488, W -0.916, Y -0.777, A -0.712, V -0.682
Q30: H -0.23, D -0.053, A -0.01, T -0.183, G -0.609, V -0.536, E -0.022, C -0.805, W -0.566, L -0.505, M -0.377, K -0.016, F -0.773, P -0.899, S -0.435, R -0.126, Y -0.664
T38: V -0.174, R -0.403, F -0.516, S -0.01, I -0.177, C 0.005, N -0.347, P -0.046, D -0.275, Y 0.017, L -0.268, G 0.005, K -0.333, A -0.015, W -0.384, H -0.587, M -0.271
P45: N -0.821, H -0.502, E -0.375, C -0.47, A -0.422, T -0.493, S -0.387, V -0.919, L -0.479, K -0.42, I -0.622, R -0.564, D -0.677, Q -0.458, M -0.467, F -0.417, G -0.434
I36: S -0.435, F -0.941, K -0.729, P -0.736, T -0.899, E -1.04, A -0.555, N -0.21, W -0.736, G -0.586, Q -0.801, V -0.471, R -0.715, M -0.885
H33: Q 0.088, Y -0.396, N 0.171, F -0.438, T -0.744, M -0.213, P -0.845, W -1.15, D 0.184, K 0.016, L -0.582, E -0.267, R -0.165, C -0.426, G 0.081, A -0.182
T34: C -0.423, L -0.689, A -0.877, P -0.867, F -0.969, R -0.641, G -0.828, N -0.791, W -0.947, D -0.503, Y -1.07, M -0.788, Q -1.01, K -0.34, I -0.866, S -0.802
R41: T -0.021, W -0.245, L -0.21, F -0.343, D 0.048, C -0.067, S -0.047, V -0.088, Y -0.212, E -0.021, K 0.019, H -0.109, P 0.071, A 0.017, N -0.058, I -0.15, M -0.168, G -0.154
